The results in this text go back to patent publication US20170137467A1 (CHROMOTEK, published 2017).

Numbering of substitutions follows the chain as printed.

In assay [1] the target is T1, BC2T A6K peptide (BC2TA6X library) (human).
T1 construct: also called lysine at position 6
T1 peptide: Ac-PDRKAKVSHWQQ-NH2
Put plainly: BC2TA6X library pulldown with immobilized Nb, LC-MS of the supernatant. Here is the method: (§1) To investigate the binding specificity of the BC2T and derived mutants peptide libraries for each amino acid position of the sequence […] (SEQ ID NO:4) were synthesized with acetyl and amide groups located at the N-termini or C-termini respectively (Intavis). […] Incubations were performed in 300 μl PBS/0.01% CHAPS for 1 h on a HulaMixer (Life Technologies). Subsequent to a centrifugation step 10 μl supernatant were analyzed in a LC-MS procedure. Peptides were separated using an UltiMate3000 RSLCnano System (Thermo Scientific), composed of a C18 PepMap100μ-Precolumn (300 μm×5 mm; particle size: 5 μm; pore size: 100 Å—Thermo Scientific) and a C18 analytical column (Acclaim Rapid Separation LC (RSLC) Column: 150 mm×5 mm; particle size: 2.2 μm; pore size: 100 Å—Thermo Scientific). A step gradient was applied starting at 8% and ending after 20 min at 30% eluent B (80% acetonitrile, 20% H₂O, 0.1% formic acid). Peptides were analyzed using a FULL-MS-strategy detected by a Q Exactive Plus mass spectrometer (Thermo Scientific). As maximal injection time 100 ms was chosen while setting the AGC target to 3E6. The resolution was set to 70.000. Half-maximal signal areas were referenced to control precipitation approaches using a GFP-specific nanobody immobilized on agarose beads. All experiments were done in triplicates.

For assay [2], the target named is T2, BC2T A6R peptide (BC2TA6X library) (human).
T2 construct: also called arginine at position 6
T2 peptide: Ac-PDRKARVSHWQQ-NH2
Described as above. How it is done:
as §1

Assay [3] deals with T3, recombinant human β-catenin, full-length (human, UniProt P35222 1-781, limits assumed).
T3 construct: Purified from E. coli; also called full-length β-catenin
T3 sequence (looked up): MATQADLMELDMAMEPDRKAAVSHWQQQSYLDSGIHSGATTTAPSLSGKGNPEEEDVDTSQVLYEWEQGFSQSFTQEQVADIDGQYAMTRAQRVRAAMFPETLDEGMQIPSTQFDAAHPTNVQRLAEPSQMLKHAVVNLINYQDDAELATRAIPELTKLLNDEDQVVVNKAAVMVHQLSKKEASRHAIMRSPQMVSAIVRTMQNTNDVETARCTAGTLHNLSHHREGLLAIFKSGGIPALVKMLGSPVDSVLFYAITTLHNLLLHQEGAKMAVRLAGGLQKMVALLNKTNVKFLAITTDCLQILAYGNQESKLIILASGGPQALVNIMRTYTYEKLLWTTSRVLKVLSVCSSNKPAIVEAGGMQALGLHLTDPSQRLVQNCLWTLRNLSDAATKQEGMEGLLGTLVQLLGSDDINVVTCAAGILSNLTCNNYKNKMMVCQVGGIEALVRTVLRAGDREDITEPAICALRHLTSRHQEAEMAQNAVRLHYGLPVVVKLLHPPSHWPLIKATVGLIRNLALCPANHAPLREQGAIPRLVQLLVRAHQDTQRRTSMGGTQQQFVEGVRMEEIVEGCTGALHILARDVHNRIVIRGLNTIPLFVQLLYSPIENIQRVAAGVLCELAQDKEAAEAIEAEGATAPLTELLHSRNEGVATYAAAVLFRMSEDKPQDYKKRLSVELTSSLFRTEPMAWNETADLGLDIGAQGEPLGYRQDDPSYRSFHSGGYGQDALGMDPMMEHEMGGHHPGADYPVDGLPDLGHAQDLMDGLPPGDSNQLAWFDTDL
Put plainly: SPR (Biacore 3000), recombinant β-catenin immobilized, five Nb concentrations, 1:1 Langmuir. Here is the method: The dissociation was induced by two injections of regeneration solution of 15 μl each at the identical flow rates.
Background: SPR reads the build-up and loss of mass on a sensor chip optically.

Assay [4] addresses T4, eGFP-PCNA with C-terminal BC2 tag (eGFP-PCNABC2T) (human, UniProt P12004 1-261).
T4 construct: Expressed in HEK293T or HeLa cells; not shown: eGFP
Put plainly: immunoprecipitation from HEK293T lysate, immunoblot with anti-PCNA. How it is done:
HEK293T cells transiently expressing eGFP, eGFPBC2T or BC2TeGFP, eGFP-PCNA, eGFP-PCNABC2T, mCherry-Vimentin, mCherry-VimentinBC2T were washed and harvested in phosphate buffered saline (PBS), snap-frozen in liquid nitrogen and stored at −20° C. Cell pellets were homogenized in 200 μl lysis buffer (10 mM Tris/Cl pH 7.5, 150 mM NaCl, 0.5% NP40, 1 μg DNaseI, 2 mM MgCl₂, 2 mM PMSF, 1× protease inhibitor mix M (Serva) by repeated pipetting for 40 min on ice. After a centrifugation step (10 min at 18.000×g) the protein concentration of each lysate was determined using a Pierce BCA Protein Assay Kit (Thermo Fisher Scientific) according to manufacturer's protocol and the protein solutions were adjusted with dilution buffer (10 mM Tris/Cl pH 7.5, 150 mM NaCl, 2 mM PMSF) to a concentration of 1 mg/ml. 2% of the supernatant were added to SDS-containing sample buffer (referred to as input). […] After a centrifugation step (2 min, 2500×g) the precleared supernatant was transferred to a new cup. 2% were added to SDS-containing sample buffer (referred to as non-bound). […] Samples were analyzed by SDS-PAGE followed by immunoblotting. Immunoblots were probed with indicated antibodies.
(In general: Immunoblotting shows a protein as a band on a membrane.)

Another assay deals with T5, BC2T P1N.
T5 construct: positional scanning library member
T5 peptide: Ac-NDRKAAVSHWQQ-NH2
Put plainly: positional peptide library pulldown on immobilised Nb, LC-MS of supernatant; signal ratio to control GFP-Nb (1 = not captured, near 0 = captured). Summed up: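 Unbound peptide left in supernatant after 1 h pulldown in PBS/0.01% CHAPS measured by reversed-phase LC-MS (8–30% eluent B gradient, 20 min).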

The Kd is the equilibrium constant for the complex coming apart.

T4 sequence (P12004 other isoform, or with tags, fused parts or gaps limits assumed): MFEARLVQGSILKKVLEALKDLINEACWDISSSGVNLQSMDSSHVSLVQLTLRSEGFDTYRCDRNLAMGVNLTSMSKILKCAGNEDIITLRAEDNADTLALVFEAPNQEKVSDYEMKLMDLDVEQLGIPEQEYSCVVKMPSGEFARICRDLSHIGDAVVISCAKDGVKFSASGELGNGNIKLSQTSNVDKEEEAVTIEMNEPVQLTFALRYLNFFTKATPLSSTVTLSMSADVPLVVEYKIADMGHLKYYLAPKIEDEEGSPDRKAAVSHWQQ

B1: BC2 nanobody (VHH)
VHH: QVQLVESGGGLVQPGGSLTLSCTASGFTLDHYDIGWFRQAPGKEREGVSCINNSDDDTYYADSVKGRFTIFMDNAKDTVYLQMNSLKPEDTAIYYCAEARGCKRGRYEYDFWGQGTQVTVSS
notes: Alpaca VHH, 122 aa; also called BC2-Nb; BC2 nanotrap (BC2-Nb immobilized on agarose/Sepharose beads); not shown: C-terminal 6xHis-tag added by the pHEN6 vector
On to B1, for which the binding result in assay [1] is “no binding”; in assay [2], “no binding”; in assay [4], “binds”. The Kd in assay [3] was roughly 3.1 nM.

B2: BC2-NbR106E (VHH)
VHH: B1 VHH with R106E
notes: headlock mutant of BC2-Nb; immobilised on beads in this assay
Take B2: the ratio with BC2T P1N was determined as 0.7.
